# Measured values as given in patent publication US20200024330A1.
# Assays:
# Assay in all cases: cell-based or functional assay
# [1] = molecular target: HIV-1 Env of isolate MGRM-G-004 (HIV-1)
# [2] = molecular target: HIV-1 Env of isolate MGRM-G-019 (HIV-1)
# [3] = molecular target: HIV-1 Env of isolate MGRM-Chronic-B-018 (HIV-1)
# [4] = molecular target: HIV-1 Env of isolate MGRM-G-009 (HIV-1)
# [5] = molecular target: HIV-1 Env of isolate MGRM-Chronic-B-011 (HIV-1)
# [6] = molecular target: HIV-1 Env of isolate MGRM-Chronic-B-012 (HIV-1)
# [7] = molecular target: HIV-1 Env of isolate MGRM-G-014 (HIV-1)
# [8] = molecular target: HIV-1 Env of isolate MGRM-Chronic-B-010 (HIV-1)
# [9] = molecular target: HIV-1 Env of isolate MGRM-Chronic-B-020 (HIV-1)
# [10] = molecular target: HIV-1 Env of isolate MGRM-G-015 (HIV-1)
# [11] = molecular target: HIV-1 Env of isolate MGRM-G-016 (HIV-1)
# [12] = molecular target: HIV-1 Env of isolate MGRM-D-024 (subtype D), on pseudovirus (HIV-1)
# [13] = molecular target: HIV-1 Env of isolate MGRM-G-011 (HIV-1)
# [14] = molecular target: HIV-1 Env of isolate MGRM-Chronic-B-017 (HIV-1)
# [15] = molecular target: aMLV envelope (negative control pseudovirus)
# [16] = molecular target: HIV-1 92BR020 envelope glycoprotein (Env) on pseudovirus (HIV-1)
# [17] = molecular target: HIV-1 Env of isolate SC422661.8 (HIV-1)
# [18] = molecular target: HIV-1 Env of isolate MGRM-Chronic-B-024 (HIV-1)
# [19] = molecular target: HIV-1 Env of isolate MGRM-G-001 (HIV-1)
# [20] = molecular target: HIV-1 Env of isolate MGRM-G-006 (HIV-1)
# [21] = molecular target: HIV-1 Env of isolate MGRM-G-027 (HIV-1)
# [22] = molecular target: HIV-1 92RW020 envelope glycoprotein (Env) on pseudovirus (HIV-1)
# [23] = molecular target: HIV-1 Env of isolate MGRM-G-017 (HIV-1)
# [24] = molecular target: HIV-1 Env of isolate MGRM-G-013 (HIV-1)
# [25] = molecular target: HIV-1 Env of isolate JRFL (HIV-1)
# [26] = molecular target: HIV-1 Env of isolate MGRM-Chronic-B-023 (HIV-1)
# [27] = molecular target: HIV-1 JR-CSF Env D477A (HIV-1 (isolate JR-CSF)) (UniProt P20871)
# Sequence of 5345_I01 (PGT-137) (antibody) (VH): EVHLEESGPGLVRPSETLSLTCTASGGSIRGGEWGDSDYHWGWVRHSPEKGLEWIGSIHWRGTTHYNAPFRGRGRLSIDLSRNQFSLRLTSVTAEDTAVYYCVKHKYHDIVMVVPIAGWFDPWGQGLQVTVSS
# Sequence of 5345_I01 (PGT-137) (antibody) (VL): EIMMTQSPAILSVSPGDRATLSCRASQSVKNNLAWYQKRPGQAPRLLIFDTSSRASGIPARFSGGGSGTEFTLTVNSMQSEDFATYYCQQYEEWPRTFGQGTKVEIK
# Sequence of 5329_C19 (PGT-136) (antibody) (VH): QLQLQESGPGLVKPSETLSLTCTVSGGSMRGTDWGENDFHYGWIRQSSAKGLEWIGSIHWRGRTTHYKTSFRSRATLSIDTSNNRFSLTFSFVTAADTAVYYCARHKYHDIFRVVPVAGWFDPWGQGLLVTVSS
# Sequence of 5329_C19 (PGT-136) (antibody) (VL): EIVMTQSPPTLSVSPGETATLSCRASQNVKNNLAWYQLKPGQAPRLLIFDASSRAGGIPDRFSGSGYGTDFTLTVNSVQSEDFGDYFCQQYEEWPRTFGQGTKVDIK
Substance,"IC50, pseudovirus neutralization [1] [µg/mL]","IC50, pseudovirus neutralization [2] [µg/mL]",IC50 [3] [µg/mL],"IC50, pseudovirus neutralization [4] [µg/mL]",IC50 [5] [µg/mL],IC50 [6] [µg/mL],"IC50, pseudovirus neutralization [7] [µg/mL]",IC50 [8] [µg/mL],IC50 [9] [µg/mL],"IC50, pseudovirus neutralization [10] [µg/mL]","IC50, pseudovirus neutralization [11] [µg/mL]","IC50, pseudovirus neutralization [12] [µg/mL]","IC50, pseudovirus neutralization [13] [µg/mL]",IC50 [14] [µg/mL],"IC50, pseudovirus neutralization [15] [µg/mL]",IC50 [17] [µg/mL],IC50 [18] [µg/mL],"IC50, pseudovirus neutralization [19] [µg/mL]","IC50, pseudovirus neutralization [20] [µg/mL]","IC50, pseudovirus neutralization [21] [µg/mL]",other results
5329_C19 (PGT-136) (antibody),> 50,44.3,> 50,> 50,> 50,43.1,> 50,> 50,> 50,> 50,> 50,> 50,> 50,> 50,> 50,> 50,> 50,8.11,> 50,45.2,"IC50 (ug/ml), neutralizing activity [16]: > 10 µg/mL; IC50 (ug/ml), neutralizing activity [22]: 0.738 µg/mL; IC50, pseudovirus neutralization [23]: > 50 µg/mL; IC50, pseudovirus neutralization [24]: > 50 µg/mL; IC50 [25]: > 50 µg/mL; IC50 [26]: > 50 µg/mL"
5136_H01 (PGT-131) (antibody),> 50,> 50,> 50,> 50,6.47,15.7,4.31,0.016,0.053,> 50,> 50,> 50,> 50,> 50,> 50,> 50,> 50,0.404,> 50,2.9,"IC50, pseudovirus neutralization [23]: > 50 µg/mL; IC50, pseudovirus neutralization [24]: > 50 µg/mL; IC50 [25]: 0.454 µg/mL; Fold IC50 increase relative to wild-type [27]: 1 fold; IC50 [26]: > 50 µg/mL"
5345_I01 (PGT-137) (antibody),> 50,0.126,> 50,> 50,> 50,> 50,> 50,> 50,32.9,> 50,> 50,> 50,> 50,> 50,> 50,> 50,> 50,41.7,> 50,0.228,"IC50, pseudovirus neutralization [23]: 34.9 µg/mL; IC50, pseudovirus neutralization [24]: > 50 µg/mL; IC50 [25]: > 50 µg/mL; IC50 [26]: > 50 µg/mL"
